# PMC9332396
# Target: His6-NbSWP12 recombinant protein (spore wall protein NbSWP12 of Nosema bombycis) (Nosema bombycis)
# Assay: non-reducing SDS-PAGE with Western blot; purified His6-NbSWP12 in non-reducing loading buffer (no SDS, no β-mercaptoethanol, not heated), 12% gel, blot with NbSWP12 antiserum
substance,measurement,value
His6-NbSWP12 recombinant protein (spore wall protein NbSWP12 of Nosema bombycis) (natural protein),stoichiometry N,2
